Measurements reported in the nanobody polyreactivity screen of Harvey et al. (2022).

experiment: yeast display, Sf9 membrane polyspecificity reagent, FACS + sequencing; frameworks hold sequencing errors
Method in brief: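 Sorting gates, low and high (top ~1%), were placed on anti-HA fluorescence to track expression and on streptavidin fluorescence to track reagent binding. A clone's polyreactivity label is taken from the gate it came out of. The reagent was 10% biotinylated, detergent-solubilized Sf9 membrane, applied for 1 hour at 4 °C to galactose-induced yeast display cells.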

Row | Sequence | polyreactivity (PSR sort gate)
1 | QVQLVESGGGLVQAGGSLRLSCAASGFTFLAYAMVWYRQAPGKERELVAAIRWSGGRTYYADSVKGRFTISRDNAKNTVYLQMNSLKPEDTAVYYCAADTRRVREYNYWGQGTQVTVSS | low polyreactivity
2 | QVQLVESGGGLVQAGGSLRLSCAASGRTFPPYGMGWNRQAPGKERELVADISKSSGSTNYADSVKARFTISRDKAKNTVYLQMNSVKPEDTAVYYCNVDLYRWSKLAGAYRMDYSGQGTQVTVSS | low polyreactivity
3 | QVQLVESGGGLVQAGGSLRLSCAASGSTFGGNAMGWYRKAPGKERELVAVISKRGGSTYYADSVKGRFTISRDNAKNTVYLQMNSLKPEDTAVYYCAATYSRYWSPTYDYWGQGTQVTVSS | high polyreactivity
4 | KVQLVESGGGLVQAGGSLLLSCAASGRTFTYNAIGWYRQARGTERELVAVITNSGGSTYYADSVKGRYTISRDNAKNTVYLQRNRLKPEDTAVYYCAADYFSRYWYRFYYWGQGTQVTVSS | high polyreactivity
5 | QVQLVESGGGLVQAGGSLRLSCAASGSIFAVYAMGWYRQAPGKERELVASISRRGGSTYYADSVKGRFTISRDNAKNTVYLQMNSLKPEDTAVYYCAATGRRGYGYGYWGQGTQVTVSS | high polyreactivity
6 | QVQLVESGGGLVQAGGSLRLSCAASGSIFYRYAMGWYRQAPGKERELVATISSGGRTYYADSVKGRFTISRDNAKNTVYLQMNSLKPEVTAVYYCAAKRFSSPYWEYYWGQGTQVTVSS | high polyreactivity
7 | QVQLVESGGGLVQAGGSLRLSCAASGGIFIANAMGWYRQAPGKERELVAAISSSGGSTYYADSVKGRFTISRDNAKNTVYLQMNSLKPEDTAVYYCAARRSVRRGGDYYWGQGTQVTVSS | high polyreactivity
8 | QVQLVESGGGLVQAAGSLRLSCAASGTTFNRFFMGWYREAPGTERELVAANGGRTYYADSVKGRFTISRDNAKKSVYFQRNSLKPEDTAVYYCNARSYKHPYYRFDYWGQGTEVTVSS | high polyreactivity
9 | QVQLVESGGGLVQAGCSLRLSCAASGIIFGYYAMGWYRQAPVKERELVAAISSRGSRTYYSDSLKGRFTISRDNAKNTVYLQMNSLIPEDTAVYYCAVRGKFDYWGQGTQVTVSS | high polyreactivity
10 | QDQLVESGGGLVQAGGSLSLSCAASGSIFGKYTMGWYRQAPGKERELVAGITYRAGSTYYADSVKGRFTISRDNAKITVYLQMNSLKPEDTAVYYCAARFYFRWYYYGSYANYWGQGTQVTVSS | high polyreactivity
11 | QVHLVESGGGFVQAGGSLRLSCAASGSICGSYAMGWYRQAPGKERELVAAISKSGGNTYYADSVKGRFTISRDNAKNTVYLQMNSVKPEDTAVYYCAAYGFYRWRGYDYSGQGTQVTVSS | high polyreactivity
12 | QVQLEDSGGGLVQAGGSLPLSCAASGGTFTDYAMGWYRQAPGKERELVAAISSVGSTNYADSVKGRFTISRDNAKNTVYLQMNSLKPEDTAVYYCAVDYGRAVQVDSITYDFNYWGQGTQVNVSS | low polyreactivity
13 | QVQLVESGGGLVQAGGSLRLSCAASGRIFKRNAMGWYRQAPGKERELVAAISYSGGSTYYADSVKGRFTISRDNAKQTVYLQMNSLKPEDTAVYYCAVDRYPTGITKYDYWGQGTLVTVSS | high polyreactivity
14 | QVQLVESGGGLVQAGGRLRLSCAASGRTFYGYAMGWYSPAPGKERELVAAITNGGRTYYADSVKGRFTISRDNAKNTVYLQMNSLKPEATAVYYCAAGPGRGRSTLGSYYWGQGTQVTVSS | high polyreactivity
15 | QVQLVESGGGLVQAGGSLRLSCAASGRTFHLYAIGWSRQAAGKERELVAAINSGGRTNYADSVKGRFTISLDNAKNTVYLQLNSLKPEDTAVYYCAARANPYVLKYYYWGQGSQVTVSS | high polyreactivity
16 | QVQLVESGGGLVQAGGSLRLSCAASGFIFKIYAMGWYRQAPGKERELVATISRGGSTYYADSVKGRFTISRDNAKNTVYLQMISLNPVDTAVYYCADVFYYPPFLYNYWGQGTQVTVSS | high polyreactivity
17 | QVQMQESGGGLVLAGGSLRLSCASSGSISAQAYMGWDRQAPGKEREHVAGINYGDNTNYADSVKGRFTISRDNEHRVSADEQPETGRYRGVLLRGFLELFYYYIYWGQGTQVTVSS | high polyreactivity
18 | QVQLVESGGGLFQAGGRLRLSCAPSGSNFVGYVMGWYRQAPGKERELVARIRWGGGRTYYADSVKGRFTISRDNAKNTVYLQMNSLKPEDTAVYFCAAETWWRTRIYDYWGQGTQGTVSS | high polyreactivity
19 | QVQLVESGGGLVQAGGSLRLSCAASGITFSRYAMGWYRQAPGKERELVAAISKRGGRTYYADSVKGRFTISRDNAKKTDYLQMNSLKPEDTAVYYCATDYYVSTDYNYWGQGTQVTVSS | high polyreactivity
20 | QVQLVESGGGLVQAGGSLRLSCAASGRTFESYVMGWYRQAPGKESELVAAISNGGSTNYADSVKGRFTISRDNAKNTVYLQMNSLKPEDTAVYYCAVRVSGPRGYDYEYWGQGTQVTVSS | low polyreactivity
21 | QVQLVESRGGLVQAGGSLRLSCAASGNTFQPYAMGWYRQAPGKERELVAAITWSGDTTYYADSVKARFTISRDNAKNTVYLQMNSLKPEDTAVYYCYPYFWYPDGYTYDYWGQGTQVTVSS | high polyreactivity
22 | QVQLVESGGGLVQAGGSLRLSCAASGRTFVFYGMGWYRQAPGKEREFVAAITRRGGSTYYADSVKGRFTISRDNAKNTVYLQMNSLKPEDTAVYYCAAGYSSRYRGGLDYWGQGTQVTVSS | high polyreactivity

Row | Sequence | polyreactivity (PSR sort gate)
23 | QAQLVESGGGLVQAGGSLRLSSAASGFIFWGNAMGWYRQAPGKERELVAGIRSLGGTTSYADSVKGRFTISRDNAKNTVYLQMNSLKPEDTAVYYCAAGYGAEFDYWGQGTQVTVSS | low polyreactivity
24 | QVQLVESGGGLVQAGGSLRLSCAASGSIFSGNAMGWYRQAPGKERELVAAITSGGSTYYADSVKGRFTISRDNAKNTVYLQMNSLKPEDTAVYYCAAVWYQYYYDRRHDYWGQGTQVTVSS | low polyreactivity
25 | QVQHVESGGGLVQAGGSLRLSCAASGRIFYAYAMGWYRQAPGKERELVASISGGGSTDYADSVKGRFTISRDNAKNTVYLQMNSLKPEDTGVYYCAAQYYLYRSRFDYWGQGTQVTVSS | high polyreactivity
26 | QVQLVESGGGLVQAGGSLRLSCAASGRIFLINAMGWYRQAPGKERELVAAITGGGGSTYYADSVKGRFTISRDNAKNTVYLQMNSLKPEDTAVYYCAARGTAERDYWGQGTQVTVSS | high polyreactivity
27 | QVQLVESGGGLVQAGGSLRLSCAASGGTFGNYAMGWYRQAPGKERELVAAISTRGGSTYYADSVKGRFTISCDNAKNTVYLQMNSLKPEDTAVYYCNARIKRPRGVYGGDYWGQGTQVTVSS | high polyreactivity
28 | QVQLVESAGGLVQAGGSLRLSCAASGLIIYYYAMGWYRPAPGKERELVAAISGSSGASTYYADSVKGRFTISRDNAKNTVYLQMNSLKPEDTAVYYCNADWARLWIRSTEFDYWGQGTQVTVSS | low polyreactivity
29 | QVQLQESGGGLVQAGGSLRLSCAASGSISSPQFMGWYRQAPGIERELVATIANGGITYYADGVKGRFTISRDNAKNTVYLQMNSLKPEDTAVYYCNARSQGWYNTFYYWGQGTQVTVSS | low polyreactivity
30 | QLQLVESGGGLVQAGGSLRLSCAASGFNFPANAMGCYRQAPGKEREFVAAITRRGGSTYYADSVKGRFTISRDYAKNPVYLQMNSLKPEDTAVYYCATYDPARSTQGYDYWGQGTQVTVSS | high polyreactivity
31 | QVQLVESGVGLVQSGGSLRLSCAASGFIFRWYAKGWYRQAPGKERELVAAISGGGSSTYYADSVKGRFTISRDNEKNTVYLQMNSLKPEDNAVYYCAAYNTYLGYPYYYWGQGTQVTVSS | high polyreactivity
32 | QVQLVESGGGLVQAGGSLRLSCAASGSTFHYYAMGWYRQAPGKERELVAAISKRGTSTYYADSVKGRFTISRDNAKNTVYLQMNSLKPEDTSVYYCNRYPIRYKHRGLDYWGHGTQVTVSS | high polyreactivity
33 | QVQLVESGGGLVQAGGSLRLSSAASGGTFDPYAMGWYRQAPGKERELVAAISDGRRTYYADSVKGRFTISRDNAKNSVYLLMNSRNTEETAVYYFDKCRLTSRICYYWWSAYHPSDYWGQGTQVSVSS | low polyreactivity
34 | QVQLVESGGGLVQAGGSLRLSSAASGRIFRGYTMGCSRQAPGKDRELVAAISRSGTRTYYADSVKGRFPISRDNAKNTGYLQMNSLTPEDTAVYDCAVDSTTAGTGMGYWGQGTQVTVSS | high polyreactivity
35 | QVQLVESGGGLVQARGSLRLSCAASGLIFYGNAMGWYRQAPGKERELVAAISRRGGRTYYADSVKGRFTISRDNAKNTVYLQMNSLKPEDTAVYYCAKRYKSIPRYWSKEYDYWGQGTQVTVSS | high polyreactivity
36 | QVQLVESGGGLVQAGGSLRLSCAASGRIFGYYAMGWYRPAPGKERELVAGITSGGITNYADSVKGRFTISRDNAKNTVYLQMNSLKPEDTAVYYCAARSGYYYRVKFYYWGQGTQVSVSS | high polyreactivity
37 | QVQLVESGGGLVQAGGSLRLICSASGRTFLYNSMGWYRQAPGKERELVAAIRWSGGTTYYADSVKGRFTISRDNAKYNVYLQMNSLKPEDTAVYYCAARWGPYYGGVRYGYWGQGTQVTVSS | high polyreactivity
38 | QVQLVESGGGLDQAGGSLRLSSAASGSIFLPNAMGWYRQAPGKEREFVADISWTGGRTYYADSVKGRFTISRDNAKHTVYLQMNRLKQEDTAVYYCAAKQYRYGLDYWGQGTQVTVSS | high polyreactivity
39 | QVQLVESGGGLVQAGGSLRLSCAASGFTFLPYVMGWYRQAPGKERELVAAISSSGGSTYYADSVKGRFTISRDNAKNTVYLQMNSLKPEDTAVYYCAKEIGVRRRDYEDYEYWGQGTQVTVSS | low polyreactivity
40 | QVQLVESGGGLVQAGGSLRLSCAASGLTFVYYAMGWYRQAPGKERELVASIDYSGSSTYYADSVKGRFTISRDNSKNTVYLQMNSLKPEDTAVYYCAATDSGEYWGQGTQVTVSS | low polyreactivity
41 | QVQLVESGGGLVQAGGSLRLSCAASGIIFHGNAMGWYRQAPGKERELVAAIRWSGGSTYYADSVKGRFTISRDNAKNSVYLPMNSLKPEDTAVYYCNAGRSWRRTHYDYWGQGTQVTVSS | high polyreactivity
42 | QVKLVESGGGLVQAGGSLSLSCAASGSTIGGYAMGWYRQAPGKERELVAAIRRSGDSTYYADSVKGRFTISRDNAKNTVYLKMNRLKPEDTAVYYCAASYLHYRYRGRDYWGQGTQVTVSS | low polyreactivity
43 | QVQLVESGGGLVQAGGSLRLSCAASGRIFVENAMGWYRQAPRKERELVAAITSRGGSTYYADSVKGRFTISRDNAKNTVYLQMNSLKPEDTAVYYCNAGKYSRFLYDHNYWGQGTQVTVSS | high polyreactivity
